Measured values from patent publication US20130302346A1 (LEXICON PHARMACEUTICALS, published 2013).
Numbering of substitutions follows the chain as printed. One block for each binder: values may come before it.

Assays:
Guinea pig NOTUM = molecular target: T1, Guinea pig NOTUM (guinea pig, UniProt Q6P988 21-496 (human entry)); assay: ELISA
T1 construct: Expressed by transient transfection
T1 chain: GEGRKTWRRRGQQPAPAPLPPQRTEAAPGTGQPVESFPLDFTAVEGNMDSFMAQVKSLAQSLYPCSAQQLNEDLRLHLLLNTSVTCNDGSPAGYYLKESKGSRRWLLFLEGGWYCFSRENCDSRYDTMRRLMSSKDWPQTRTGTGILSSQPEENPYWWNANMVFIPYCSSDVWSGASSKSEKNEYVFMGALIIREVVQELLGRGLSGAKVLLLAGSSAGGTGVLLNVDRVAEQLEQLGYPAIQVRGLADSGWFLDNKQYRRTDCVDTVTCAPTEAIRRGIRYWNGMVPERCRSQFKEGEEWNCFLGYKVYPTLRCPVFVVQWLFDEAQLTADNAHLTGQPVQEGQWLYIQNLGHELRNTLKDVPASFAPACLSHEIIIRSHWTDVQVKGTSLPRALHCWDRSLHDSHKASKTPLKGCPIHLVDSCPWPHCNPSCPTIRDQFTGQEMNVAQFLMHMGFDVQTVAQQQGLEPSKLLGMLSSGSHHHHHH

Human NOTUM D141S = molecular target: T2, Human NOTUM D141S (human, UniProt Q6P988 20-496); assay: ELISA
T2 construct: Point mutant made by transient transfection
T2 sequence: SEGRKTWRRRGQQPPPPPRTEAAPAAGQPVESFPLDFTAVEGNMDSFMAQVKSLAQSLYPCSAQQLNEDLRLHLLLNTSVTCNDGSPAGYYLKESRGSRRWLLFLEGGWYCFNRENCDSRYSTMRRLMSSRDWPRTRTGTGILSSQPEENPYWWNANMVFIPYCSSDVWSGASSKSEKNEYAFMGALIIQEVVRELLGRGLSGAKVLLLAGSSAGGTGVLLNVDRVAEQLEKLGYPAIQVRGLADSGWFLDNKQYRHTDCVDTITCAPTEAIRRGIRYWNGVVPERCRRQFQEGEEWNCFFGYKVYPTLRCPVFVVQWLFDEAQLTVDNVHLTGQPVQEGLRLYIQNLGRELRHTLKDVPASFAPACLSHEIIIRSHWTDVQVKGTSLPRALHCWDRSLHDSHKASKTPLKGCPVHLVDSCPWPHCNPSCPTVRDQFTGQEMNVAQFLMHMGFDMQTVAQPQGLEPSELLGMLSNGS

Human NOTUM = molecular target: T3, Human NOTUM (human, UniProt Q6P988 20-496); assay: Biacore 3000
T3 construct: also called human notum pectinacetylesterase; recombinant human NOTUM
T3 sequence: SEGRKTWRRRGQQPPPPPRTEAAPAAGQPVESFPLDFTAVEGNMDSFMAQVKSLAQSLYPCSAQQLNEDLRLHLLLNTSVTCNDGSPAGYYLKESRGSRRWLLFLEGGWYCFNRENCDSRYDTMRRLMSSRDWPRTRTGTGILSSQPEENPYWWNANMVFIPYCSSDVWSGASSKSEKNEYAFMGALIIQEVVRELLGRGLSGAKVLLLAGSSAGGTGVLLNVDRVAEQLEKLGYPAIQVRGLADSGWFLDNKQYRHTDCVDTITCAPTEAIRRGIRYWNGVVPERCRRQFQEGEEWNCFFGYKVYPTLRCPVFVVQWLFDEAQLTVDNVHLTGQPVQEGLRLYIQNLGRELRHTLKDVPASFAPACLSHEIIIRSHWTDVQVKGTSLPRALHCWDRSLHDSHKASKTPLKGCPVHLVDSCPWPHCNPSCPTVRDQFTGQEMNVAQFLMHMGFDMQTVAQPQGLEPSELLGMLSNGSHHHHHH
Description: Binding affinities of certain anti-NOTUM MAbs was determined using a Biacore 3000. In order to obtain meaningful affinity values for binding to multimeric […] NOTUM protein, antibody FAb fragments were generated by digestion of whole IgG with the protease Ficin, followed by removal of undigested IgG and Fc fragments by protein A affinity chromatography. Affinity values for binding of FAbs and whole IgG to human NOTUM corresponded, and their affinity values were in the single to low double digit nM range, as shown in Table 3.

binding result (Guinea pig NOTUM): binds | binding result (Human NOTUM D141S): no binding | Kd (Human NOTUM): 1.42 nM | kon (Human NOTUM): 257000 M⁻¹ s⁻¹
B1: MAb 1.802 (antibody, V domains shown)
VH: EVQLVESGGGLVKPGGSLKLSCAASGFTFSDYGMHWFRQAPEKGLEWVAYISSGSRTVYYADTVKGRFTISRDNAKNTLSLQMTSLRSEDTAMYYCARKHYNGGYFDVWGTGTTVTVSS
VL: DIVLTQSPASLAVSLGQRATISCRASKIVSTSGYSYMHWYQQKPGQPPKLLIYLASNLESGVPARFSGSGSGTDFTLNIHPVEEEDAATYYCQHSRELPPTFGSGTKLEIKR
notes: Mouse monoclonal antibody from Campaign 1 (raised against human NOTUM), IgG1

binding result (Guinea pig NOTUM): binds | binding result (Human NOTUM D141S): no binding
B2: MAb 1.846 (antibody, IgG2b, V domains shown)
VH: B1 VH with G10D, F37L, R56T, V58L, Y59S, D62N, V64M, N77K, M93I, H100N
VL: B1 VL with A12V, I28S, T31E, E85G, A88T, E97V
notes: Mouse monoclonal antibody from Campaign 1, IgG2b

binding result (Guinea pig NOTUM): binds | binding result (Human NOTUM D141S): no binding
B3: MAb 1.815 (antibody, IgG1, V domains shown)
VH: DVQLLESGGGLVQPGGSRKLSCAASGFTFSDFGMHWVRQAPEKGLEWVAYSSSGGTTVYYADTVKGRLTLSRDNSKNTLFLEMTSLRSEDTAMYYCARASYDGGYFDCWGQGTSLTVSS
VL: B1 VL with I28S, M37I, N57D, T73A, D74A, Q93H, P100F
notes: Mouse monoclonal antibody from Campaign 1, IgG1
